Values joined by “and” are separate entries in the source; they are usually repeats but may differ in a detail not shown here. Identical values can stand only once. Like-named read-outs stand apart in the source and are kept apart here.
Assays:
Stability in buffer = type: physicochemical; conditions: for half-life at 5 μM: buffer solution, read-out: Mean T 1/2 (converted)
Method: Working solutions of Compound 5 (1 mM of) and Compound 3 (1 mM) were prepared. Buffer solution (199 μL) was prepared and divided into fourteen incubation tubes. The tubes were then pre-warmed at 37° C. for 15 minutes. The 1 mM Compound 5 working solution was added to seven incubation tubes (1 μL each) for a final concentration of 5 μM and the 1 mM Compound 3 working solution was added to seven incubation tubes (1 μL each) for a final concentration of 5 μM. For Compound 5, the final concentration of organic solvents was 0.5%. Each samples was incubated at 37° C. for 0, 4, 8, 24, 48, 72, or 120 hours. The assay was performed in duplicate. After incubation for 0, 4, 8, 24, 48, 72 or 120 hours, reactions were quenched by the addition of 1000 μL methanol (pre-cool treatment under 4° C.) with 2% FA containing internal standards. All samples were vortexed for 10 minutes. 150 μL of the supernatant from each sample was transferred to a new plate. 150 μL of pure water was added to each sample for analysis by LC-MS/MS (cooler temperature: 15° C.). All calculations were carried out using Microsoft Excel. Peak area ratios were determined from extracted ion chromatograms. Percent compounds remaining at each time point were calculated by the following equation: Remaining Percentaget min(%)=(Peak Area Ratiot min/Peak Area Ratio0 min)×100
Peak Area Ratiot min is peak area ratio of test compounds at t min; and
Peak Area Ratio0 min is peak area ratio of test compounds at zero time point.
The slope value, k, was determined by linear regression of the natural logarithm of the remaining percentage of the parent drug vs. incubation time curve.
The in vitro half-life (in vitro t1/2) was determined from the slope value: in vitro t1/2=(0.693/k) Appearance of Taxol concentration (nM)=Peak Area Ratio t min/Peak Area Ratio(Taxol: 5 μM)×5000% Appearance of Taxol=Peak Area Ratio min/Peak Area Ratio(Taxol: 5 μM)×100

[1] = system: NCI-H460-luc2 human intracranial cells; assay: Efficacy against brain cancer: survival in NCI-H460-luc2 intracranial model; type: in vivo, Female BALB/c nude mice; conditions: for Increase Life Span (%): vs vehicle group; for Median Survival Time: MST ± SEM
Method: Cell Culture: Luciferase marked NCI-H460-luc2 human intracranial cells were maintained in vitro as a monolayer culture in ATCC formulated RPMI1640 medium supplemented with 10% heat inactivated fetal bovine serum, 100 U/mL penicillin and 100 μg/mL streptomycin at 37° C. in an atmosphere of 5% CO2 in air. The tumor cells were routinely subcultured twice weekly by trypsin-EDTA treatment. The cells growing in an exponential growth phase were harvested and counted for tumor inoculation.
Tumor Inoculation and Animal Grouping: Female BALB/c nude mice were anesthetized with avertin (20 μL/g). The animals were dosed intraperitoneally with 10 mg/kg of carprofen 30 minutes post-surgery for pain relief.
The anesthetized mouse was properly positioned. The surgical area was prepped with 70% ethanol solution. Using a sterile scalpel, a sagittal incision was made over the parieto-occipital bone, approximately 1 cm long. The exposed skull surface was then cleaned using a cotton swab soaked in 0.9% saline. Prior to tumor cell injection, a sterile 25 gauge sharp needle was used to puncture the skull at 2 mm to the right of the bregma and 1 mm anterior to the coronal suture, thereby creating an opening for the injection of tumor cells. Prior to drawing cells into the syringe, the contents of the cell suspension was mixed by tapping with finger. The syringe was loaded with the desired amount of cell suspension, and extra care was taken to avoid air bubbles. The outside of syringe was then cleaned with an alcohol swab to wipe the exterior free of any adherent cells, which helped to prevent extracranial tumor establishment and growth. To ensure that the appropriate injection depth was achieved, a 3 mm length was cut off on pointed end of a P20 pipetteman tip by a scalpel. This section of the tip was fitted over the syringe to limit the injection depth, and to ensure that the tip of the syringe needle was 3 mm from the underside of the skull. The syringe was placed perpendicular to the skull, in the hole previously created. And the cell suspension was slowly injected (a 3 μL suspension contains 1×10^5 NCI-H460-luc2 cells in 20% Matrigel should be injected over a 1 minute period). Intraventricular injection of cells and subsequent spinal dissemination was prevented by appropriate angle of syringe insertion. Upon completion of injection, the needle was left in place for another minute, and then slowly withdrawn. The hole as closed with medical anastomotic glue (OB). Using forceps, the scalp was drawn together over the skull and the incision was closed with surgical suture. The mice were kept warm until completely recovered from anesthesia.
Animals were selected and randomized (based on their bioluminescence density) on day 4 after tumor implantation.
Observations: During routine monitoring, the animals were checked daily for any effects of tumor growth and treatments on normal behavior such as mobility, food and water consumption (by looking only), body weight gain/loss (body weights were measured twice weekly or daily), eye/hair matting and any other abnormal effect stated in the protocol. Death and observed clinical signs were recorded on the basis of the numbers of animals within each subset.
Bioluminescence Measurements and Endpoints: The surgically inoculated mice were weighed and intraperitoneally administered luciferin at a dose of 150 mg/kg. Ten to fifteen minutes after the luciferin injection, the animals were pre-anesthetized with the mixture gas of oxygen and isoflurane. When the animals were in a complete anesthetic state, the mice were moved into the imaging chamber for bioluminescence measurements with an IVIS (Lumina II) imaging system.
The major endpoint was to determine if the tumor bioluminescence growth can be delayed, decreased, or vanished. […] The bioluminescence of the whole animal body, including primary and metastatic tumors, was measured and recorded once per week according to protocol (bioluminescence data not shown). […]

Compound	Percent Increase of T1/2, Compound 3 over Compound 5 (Stability in buffer; buffer pH 5.5) [%]	Percent Increase of T1/2, Compound 3 over Compound 5 (Stability in buffer; buffer pH 6.0) [%]	Percent Increase of T1/2, Compound 3 over Compound 5 (Stability in buffer; buffer pH 6.5) [%]	Percent Increase of T1/2, Compound 3 over Compound 5 (Stability in buffer; buffer pH 7.4) [%]	half-life at 5 μM (Stability in buffer; buffer pH 5.5, 37° C.) [h]	half-life at 5 μM (Stability in buffer; buffer pH 6.0, 37° C.) [h]	half-life at 5 μM (Stability in buffer; buffer pH 6.5, 37° C.) [h]	half-life at 5 μM (Stability in buffer; buffer pH 7.4, 37° C.) [h]	Increase Life Span (%) ([1]; Compound 3 9.6 mg/kg)	Median Survival Time ([1]; Compound 3 9.6 mg/kg) [days]	Increase Life Span (%) ([1]; Compound 3 19.2 mg/kg)	Median Survival Time ([1]; Compound 3 19.2 mg/kg) [days]	survivors at the end point ([1]; Compound 3 38.4 mg/kg)	Increase Life Span (%) ([1]; Compound 3 38.4 mg/kg)	Median Survival Time ([1]; Compound 3 38.4 mg/kg, 38.4 mg/kg)	Increase Life Span (%) ([1]; Paclitaxel 10 mg/kg)	Median Survival Time ([1]; Paclitaxel 10 mg/kg)
CC(=O)N[C@@H](CSSCCCC(=O)OC(C(=O)O[C@H]1C[C@@]2(O)[C@@H](OC(=O)c3ccccc3)[C@@H]3[C@]4(OC(C)=O)CO[C@@H]4C[C@H](O)[C@@]3(C)C(=O)[C@H](OC(C)=O)C(=C1C)C2(C)C)[C@@H](NC(=O)c1ccccc1)c1ccccc1)C(=O)N[C@H](CCCNC(=N)N)C(=O)N[C@H](CCCNC(=N)N)C(=O)N[C@H](CCCNC(=N)N)C(=O)N[C@H](CCCNC(=N)N)C(=O)N[C@H](CCCNC(=N)N)C(=O)N[C@H](CCCNC(=N)N)C(=O)N[C@H](CCCNC(=N)N)C(=O)N[C@H](CCCNC(=N)N)C(N)=O (stereo partly drawn) [Compound 3, Ac-L-Cysteine (paclitaxel-4-mercaptobutanoate)-D-Arginine8-NH2]	6.05	6.36	8.01	10.67	125	99.5	92.3	54.6	0.00	14	−28.57	10 ± 2	one mouse in Compound 3 38.4 mg/kg group was still alive	0.00	14 days and 14 ± 1 days		
CC(=O)N[C@H](CSSCCCC(=O)O[C@@H](C(=O)O[C@H]1C[C@@]2(O)[C@@H](OC(=O)c3ccccc3)[C@@H]3[C@]4(OC(C)=O)CO[C@@H]4C[C@H](O)[C@@]3(C)C(=O)[C@H](OC(C)=O)C(=C1C)C2(C)C)[C@@H](NC(=O)c1ccccc1)c1ccccc1)C(=O)N[C@H](CCCNC(=N)N)C(=O)N[C@H](CCCNC(=N)N)C(=O)N[C@H](CCCNC(=N)N)C(=O)N[C@H](CCCNC(=N)N)C(=O)N[C@H](CCCNC(=N)N)C(=O)N[C@H](CCCNC(=N)N)C(=O)N[C@H](CCCNC(=N)N)C(=O)N[C@H](CCCNC(=N)N)C(N)=O [Compound 5, Ac-D-Cysteine (paclitaxel-4-mercaptobutanoate)-D-Arginine8-NH2]					117	93.5	85.4	49.4									
CC(=O)O[C@H]1C(=O)[C@@]2(C)[C@H]([C@H](OC(=O)c3ccccc3)[C@]3(O)C[C@H](OC(=O)[C@H](O)[C@@H](NC(=O)c4ccccc4)c4ccccc4)C(C)=C1C3(C)C)[C@]1(OC(C)=O)CO[C@@H]1C[C@@H]2O [Taxol, paclitaxel]																−28.57	10 days and 10 ± 1 days
